# Test results as given in patent publication US20240150489A1 (ICHNOS SCIENCES, published 2024).
# Experiments:
# [1] = molecular target: T1, recombinant cynomolgus monkey CD38-ECD-C-his (cynomolgus monkey, UniProt Q5VAN0 45-301); test: SPR, His-captured cyno CD38, Fab analyte, 1:1 fit
# T1 construct: Extracellular region fused to 6-His; also called cyno CD38-C-His; recombinant cynomolgus monkey CD38 protein
# Protocol: (§1) Surface plasmon resonance (SPR) was used to measure the binding affinities of the Fab fragments for human and cynomolgus monkey CD38. Affinities were measured on a Biacore T200 instrument (Biacore, GE Healthcare) at 25° C. and analyzed with the Biacore T200 Evaluation Software (v3.1).
# (§2) The affinities to human and cynomolgus monkey CD38 were assessed by immobilizing CD38 and using Fab fragments as analyte. Biotinylated recombinant human CD38 protein was immobilized to around 160 RU on flow-path 2 of a Series S Sensor Chip SA or to around 100 RU on flow-path 2 of a Series S BiotinCAPture Chip and recombinant cynomolgus monkey CD38-his protein was immobilized to around 50-100 RU on flow-path 2 of a Series S CM5 Sensor Chip previously coated with anti-histidin antibody. Fab fragments were injected in single cycle kinetic at different concentrations ranging from 7.8 to 2000 nM, in HBS-EP+ buffer (Biacore, GE Healthcare, catalog NO: BR100669) at a flow rate of 30 μl/min for 3 min on flow-path 1 and 2 (flow-path 1 being used as reference). Dissociation was monitored for 5 min.
# [2] = molecular target: T2, recombinant biotinylated human CD38 Avitag, His Tag (Acrobiosystems, CD8-H82E7) (human, UniProt P28907 43-300, biotinylated (Avitag)); test: SPR, biotinylated CD38 captured, Fab analyte, 1:1 fit;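 note: biacore T200 at 25 °C, single-cycle kinetics with Fab injected at 7.8–2000 nM for 3 min, dissociation followed 5 min, reference flow path subtracted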
# T2 construct: Bought protein; also called biotinylated human CD38-avi-his protein; biotinylated recombinant human CD38 protein
# Protocol: as §1, §2
Binder,Kd [1] [nM],Kd [2] [nM]
"Anti-CD38-UCP01-H1 Fab (Fab, V domains shown, human IgG1 Fab) VH: QVQLVQSGAEVKKPGSSVKVSCKASGDFFSGYAINWVRQAPGQGLEWMGRIIPLLGDTYYAQKFQGRVTITADESTSTAYMELSSLRSEDTAVYYCARSAAGWFAYWGQGTLVTVSS VL: not shown",352,437
"Anti-CD38-UCP01-F1 Fab (Fab, V domains shown, human IgG1 Fab) VH: QVQLVQSGAEVKKPGSSVKVSCKASGGVFSLYTITWVRQAPGQGLEWMGSIIPLLGDPEYAQKFQGRVTITADESTSTAYMELSSLRSEDTAVYYCARYPYPYGSKYFDIWGQGTLVTVSS VL: not shown",393,429
"Anti-CD38-UCP02-B7 Fab (Fab, V domains shown, human IgG1 Fab) VH: EVQLVESGGGLVKPGGSLRLSCAASGFSFNEAWMTWVRQAPGKGLEWVGRIKSYSDGGYTGYAAPVKGRFTISRDDSKNTLYLQMNSLKTEDTAVYYCARSPGIPYHYFDVWGQGTLVTVSS VL: not shown",–,1710
"Anti-CD38-UCP03-B3 Fab (Fab, V domains shown, human IgG1 Fab) VH: QVQLVQSGAEVKKPGSSVKVSCKASGGDFTLYSISWVRQAPGQGLEWMGRIIPTGANANYAQKFQGRVTITADESTSTAYMELSSLRSEDTAVYYCARSWPSLGSGWFDIWGQGTLVTVSS VL: not shown",170,115
"Anti-CD38-UCP03-E3 Fab (Fab, V domains shown, human IgG1 Fab) VH: QVQLVQSGAEVKKPGSSVKVSCKASGGSFSIYAISWVRQAPGQGLEWMGGIIPNSGDTDYAQKFQGRVTITADESTSTAYMELSSLRSEDTAVYYCARGPYDSYGESYFDYWGQGTLVTVSS VL: not shown",195,300
"Anti-CD38-UCP02-F5 Fab (Fab, V domains shown, human IgG1 Fab) VH: QVQLVQSGAEVKKPGSSVKVSCKASGGVFSYYTISWVRQAPGQGLEWMGRIIPSLGATHYAQKFQGRVTITADESTSTAYMELSSLRSEDTAVYYCARSDSFYYAYYMDLWGQGTLVTVSS VL: not shown",55.2,71.1
"Anti-CD38-UCP01-C2 Fab (Fab, V domains shown, human IgG1 Fab) VH: QVQLVQSGAEVKKPGSSVKVSCKASGGYLGIYAISWVRQAPGQGLEWMGRIIPILGEADYAQKFQGRVTITADESTSTAYMELSSLRSEDTAVYYCARGGVWWDYWGQGTLVTVSS VL: not shown",53.5,85.3
"Anti-CD38-UCP02-D5 Fab (Fab, V domains shown, human IgG1 Fab) VH: QVQLVQSGAEVKKPGSSVKVSCKASGGIFSVHAIHWVRQAPGQGLEWMGEIIPVIGEADYAQKFQGRVTITADESTSTAYMELSSLRSEDTAVYYCAREQYYYALGGGFDYWGQGTLVTVSS VL: not shown",33.5,192
"Anti-CD38-UCP01-E2 Fab (Fab, V domains shown, human IgG1 Fab; also called anti-CD38-E2; anti-CD38-E2 Fab) VH: QVQLVQSGAEVKKPGSSVKVSCKASGGSFSNYAIGWVRQAPGQGLEWMGRIIPVFGSAHYAQKFQGRVTITADESTSTAYMELSSLRSEDTAVYYCARGLGYYLYSSYYFDIWGQGTLVTVSS VL: not shown",88.9,110
"Anti-CD38-UCP02-F2 Fab (Fab, V domains shown, human IgG1 Fab) VH: QVQLVQSGAEVKKPGSSVKVSCKASGDVFSLLAIGWVRQAPGQGLEWMGRIIPSLDATHYAQKFQGRVTITADESTSTAYMELSSLRSEDTAVYYCARGRDVLRSYYFDIWGQGTLVTVSS VL: not shown",14,14.2
"Anti-CD38-UCP01-G1 Fab (Fab, V domains shown, human IgG1 Fab) VH: QVQLVQSGAEVKKPGSSVKVSCKASGGGFSKYFITWVRQAPGQGLEWMGGVIPKIGYTSYAQKFQGRVTITADESTSTAYMELSSLRSEDTAVYYCARGSDDYASYSPLDSWGQGTLVTVSS VL: not shown",283,1120
"Anti-CD38-UCP01-B1 Fab (Fab, V domains shown, human IgG1 Fab) VH: QVQLVQSGAEVKKPGSSVKVSCKASGGDFDQYYISWVRQAPGQGLEWMGRIIPTLGDSQYAQKFQGRVTITADESTSTAYMELSSLRSEDTAVYYCARAVIVSPYYYIYVFDVWGQGTLVTVSS VL: not shown",102,193
"Anti-CD38-UCP02-D1 Fab (Fab, V domains shown, human IgG1 Fab) VH: QVQLVQSGAEVKKPGSSVKVSCKASGGDFDQYYISWVRQAPGQGLEWMGRIIPTLGDSQYAQKFQGRVTITADESTSTAYMELSSLRSEDTAVYYCARAVIVSPYYYIYVFDVWGQGTLVTVSS VL: not shown",78,133
"Anti-CD38-UCP03-B6 Fab (Fab, V domains shown, human IgG1 Fab; also called anti-CD38-B6; anti-CD38-B6 Fab) VH: QVQLVQSGAEVKKPGSSVKVSCKASGGHISNSAINWVRQAPGQGLEWMGRVIPVIDDAYYAQKFQGRVTITADESTSTAYMELSSLRSEDTAVYYCARSRGYYGSFYFDIWGQGTLVTVSS VL: not shown",829,225
"Anti-CD38-UCP02-E5 Fab (Fab, V domains shown, human IgG1 Fab) VH: QVQLVQSGAEVKKPGSSVKVSCKASGGGFRHYFISWVRQAPGQGLEWMGGIIPAAATPYYAQKFQGRVTITADESTSTAYMELSSLRSEDTAVYYCARGYWHWFDYWGQGTLVTVSS VL: not shown",–,0.03
"Anti-CD38-UCP02-F6 Fab (Fab, V domains shown, human IgG1 Fab) VH: EVQLLESGGGLVQPGGSLRLSCAASGFTFSFYDMSWVRQAPGKGLEWVSAVSLYGDETYYADSVKGRFTISRDNSKNTLYLQMNSLRAEDTAVYYCAREPVSYDYYGSYFDYWGQGTLVTVSS VL: not shown",–,389
"Anti-CD38-UCP02-B1 Fab (Fab, V domains shown, human IgG1 Fab) VH: QVQLVQSGAEVKKPGSSVKVSCKASGGQFSFYAINWVRQAPGQGLEWMGEIIPDYGVTHYAQKFQGRVTITADESTSTAYMELSSLRSEDTAVYYCARWSYTYGIRYYYKLFDPWGQGTLVTVSS VL: not shown",–,595
"Anti-CD38-UCP03-H5 Fab (Fab, V domains shown, human IgG1 Fab) VH: QVQLVQSGAEVKKPGSSVKVSCKASGGLFSFYAISWVRQAPGQGLEWMGGIIPFFGEPQYAQKFQGRVTITADESTSTAYMELSSLRSEDTAVYYCARGSYRFDVWGQGTLVTVSA VL: not shown",111,142
"Anti-CD38-UCP02-H1 Fab (Fab, V domains shown, human IgG1 Fab) VH: QVQLVQSGAEVKKPGSSVKVSCKASGDKFNTYAISWVRQAPGQGLEWMGGITPRYDYAHYAQKFQGRVTITADESTSTAYMELSSLRSEDTAVYYCARSWGFRAGYLDYWGQGTLVTVSS VL: not shown",2.7,154
"Anti-CD38-UCP02-A7 Fab (Fab, V domains shown, human IgG1 Fab) VH: EVQLLESGGGLVQPGGSLRLSCAASGFTFSFYDMSWVRQAPGKGLEWVSTITLHGGDTYYADSVKGRFTISRDNSKNTLYLQMNSLRAEDTAVYYCARDPSYIYSTSGYFDYWGQGTLVTVSS VL: not shown",–,71.1
"Anti-CD38-UCP03-C3 Fab (Fab, V domains shown, human IgG1 Fab) VH: QVQLVQSGAEVKKPGSSVKVSCKASGGKFSNYAISWVRQAPGQGLEWMGRIIPQIGDAAYAQKFQGRVTITADESTSTAYMELSSLRSEDTAVYYCARASFLYYSYYFDYWGQGTLVTVSS VL: not shown",465,117
"Anti-CD38-UCP03-C2 Fab (Fab, V domains shown, human IgG1 Fab) VH: QVQLVQSGAEVKKPGSSVKVSCKASGGTFSNYAISWVRQAPGQGLEWMGGIIPAFGDAGYAQKFQGRVTITADESTSTAYMELSSLRSEDTAVYYCARGRVLYYSYYFDYWGQGTLVTVSS VL: not shown",628,1390
"Anti-CD38-UCP02-C3 Fab (Fab, V domains shown, human IgG1 Fab) VH: QVQLVQSGAEVKKPGSSVKVSCKASGDYFNNYAINWVRQAPGQGLEWMGRIIPFLDDANYAQKFQGRVTITADESTSTAYMELSSLRSEDTAVYYCARATSPLYSYYFDYWGQGTLVTVSS VL: not shown",188,305
